In PMC4468156, “Essential Role for an M17 Leucine Aminopeptidase in Encystation of Acanthamoeba castellanii” (PLoS ONE, 2015):

B1: AcLAPr (recombinant AcLAP, M17 leucine aminopeptidase) (Acanthamoeba castellanii) (protein)
chain: MQGKAKCLLWGAASFRSSLRAGAASSSAASIFTRSATHRSPLLSSHGLFPSGSKLIFVAPSTFGTTKPCYSTAAGGDKQIDGVVVGIFEGGELTPAGQAIDKSTSGALTRRIKLSKKAAKGEVGGGEVFFDLGEDYPRVAVVGLGKHPRDVKLTSEQEDYREGQPKPSDAVRQGAARGARLLRDAGSKVIGVESFSEFADLPSVQLAAEGALLGLHKFDELFSKKDDEPVDVRPWGVEADKQEEWNRGKIIATAQNFARVLTDTPANLMTPTIFSQKVEEKFASLPNKADVKIFAHDKAWAEEQGMGCFLGVTQGSEEPPKFLEIHYNPLGDEAQDVAPIIFVGKGVTFDSGGISIKPSEGMGMMRGDMGGAAAVVSTVWALASLQIKTKAICLTPLCENMPSGTATKPGDVLRAKNGKTVEVDNTDAEGRLILADALVYANSFKPAAVIDVATLTGAMVVALGAGATGVFTTSDKLWREMDEAGWKTDSRVWRMPLFSSYKRQIKSAYADLKNVGGRPAGSSTAALFLKEFVETPAWMHMDIAGVMHSDDRNAYTPKGMAGEPVRTLVQWVRDKVEKH
notes: pCold TF vector, E. coli BL21 (pKJE7), Ni-NTA; N-terminal His6-trigger factor tag removed with thrombin

Columns and labels:
[1] = target: T1, AcLAPr (recombinant AcLAP, M17 leucine aminopeptidase) (Acanthamoeba castellanii, UniProt A0A060A630); assay: inhibition of Leu-AMC hydrolysis, fluorometric; type: biochemical
T1 construct: gene LAP; pCold TF vector, E. coli BL21 (pKJE7), Ni-NTA; N-terminal His6-trigger factor tag removed with thrombin
T1 sequence (A0A060A630 1-579): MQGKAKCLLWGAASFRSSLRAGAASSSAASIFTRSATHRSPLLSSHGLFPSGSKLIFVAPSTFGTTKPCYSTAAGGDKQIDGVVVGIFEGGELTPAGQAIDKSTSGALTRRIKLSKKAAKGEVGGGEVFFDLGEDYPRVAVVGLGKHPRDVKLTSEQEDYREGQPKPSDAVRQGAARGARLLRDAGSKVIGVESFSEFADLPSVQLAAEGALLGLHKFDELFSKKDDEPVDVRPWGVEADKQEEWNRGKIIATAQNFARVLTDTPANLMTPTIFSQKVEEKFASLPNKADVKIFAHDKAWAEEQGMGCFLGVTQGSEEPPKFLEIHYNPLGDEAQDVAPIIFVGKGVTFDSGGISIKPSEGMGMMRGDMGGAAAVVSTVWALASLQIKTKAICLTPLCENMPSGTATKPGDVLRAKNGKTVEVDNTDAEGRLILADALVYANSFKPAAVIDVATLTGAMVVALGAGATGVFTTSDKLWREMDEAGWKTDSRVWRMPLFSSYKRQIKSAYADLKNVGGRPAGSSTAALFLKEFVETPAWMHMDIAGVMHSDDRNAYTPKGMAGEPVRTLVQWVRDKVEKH
Description: inhibition of Leu-AMC hydrolysis, fluorometric on AcLAPr (recombinant AcLAP, M17 leucine aminopeptidase)

[2] = substrate: Cc1cc(=O)oc2cc(NC(=O)[C@@H](N)CCCNC(=N)N)ccc12; assay: purified protein; type: biochemical, Acanthamoeba castellanii; settings: 50 mM Tris-HCl, 1 mM MnCl2, pH 8.0, 37°C, 25 nM enzyme
[3] = substrate: Cc1cc(=O)oc2cc(NC(=O)[C@@H](N)CC(C)C)ccc12; assay: purified protein; type: biochemical, Acanthamoeba castellanii; settings: 50 mM Tris-HCl, 1 mM MnCl2, pH 8.0, 37°C, 25 nM enzyme
[4] = substrate: CSCC[C@H](N)C(=O)Nc1ccc2c(C)cc(=O)oc2c1; assay: purified protein; type: biochemical, Acanthamoeba castellanii; settings: 50 mM Tris-HCl, 1 mM MnCl2, pH 8.0, 37°C, 25 nM enzyme

| Molecule | activity at 10 µM [1] [%] | Km [2] [µM] | Km [3] [µM] | Km [4] [µM] |
| --- | --- | --- | --- | --- |
| CC(C)C[C@H](NC(=O)[C@@H](O)[C@H](N)Cc1ccccc1)C(=O)O [bestatin] | 22.5 ± 1.13 |  |  |  |
| B1 |  | 41.37 ± 0.05 | 13.51 ± 1.31 | 3.77 ± 0.46 |
